Experimental data taken from paper PMC10960832.

Columns and labels:
[1] = target: C-terminal avi tagged 53BP1 Tudor domain, biotinylated (human) (UniProt Q12888); experiment: AlphaScreen or HTRF; TR-FRET competition: 0.5 uM His-tagged i53, 0.5 uM C-terminal avi tagged 53BP1, 5 nM europium anti-His antibody, 0.5x streptavidin-XL665, i53 variant 5000-4.8 nM; 50 mM Tris pH 7.5, 150 mM NaCl, 0.02% Tween-20, 0.05% BSA; 2 h at room temperature; non-linear 4 parameter curve …
[2] = target: 53BP1 Tudor domain (53BP1 residues 1484–1603) (human) (UniProt Q12888)

Substance	EC50 [1] [nM]	potency in increasing HDR / decreasing NHEJ at HBB in HSPCs (dose response of purified protein in the electroporation mix, HBB-SNP AAV6), relative to parental i53 [2] [fold]
i53 (WT) (designed binder)	1080	–
i53 variant T12V.T14H.L67H (designed binder)	338	3
i53 variant T12Y.T14E.L67R (designed binder)	179	–

Other lines, results leading:

EC50 [1] [nM]	potency in increasing HDR / decreasing NHEJ at HBB in HSPCs (dose response of purified protein in the electroporation mix, HBB-SNP AAV6), relative to parental i53 [2] [fold]	Substance
465	–	i53 variant L67H (designed binder)
501	–	i53 variant L67H.H68Y (designed binder)
458	3	i53 variant L67R (designed binder)
